Results published in patent US20050026256.

Target: T1, synthetic peptide substrate SEVNLDAEFR containing the APP Swedish mutation
T1 chain: SEVNLDAEFR

B1: Hu-Asp2 (human aspartyl protease 2), full-length, expressed from pcDNA3.1(+)Hygro/Hu-Asp2 (protein)
chain: TQHGIRLPLRSGLGGAPLGLRLPRETDEEPEEPGRRGSFVEMVDNLRGKSGQGYYVEMTVGSPPQTLNILVDTGSSNFAVGAAPHPFLHRYYQRQLSSTYRDLRKGVYVPYTQGKWEGELGTDLVSIPHGPNVTVRANIAAITESDKFFINGSNWEGILGLAYAEIARPDDSLEPFFDSLVKQTHVPNLFSLQLCGAGFPLNQSEVLASVGGSMIIGGIDHSLYTGSLWYTPIRREWYYEVIIVRVEINGQDLKMDCKEYNYDKSIVDSGTTNLRLPKKVFEAAVKSIKAASSTEKFPDGFWLGEQLVCWQAGTTPWNIFPVISLYLMGEVTNQSFRITILPQQYLRPVEDVATSQDDCYKFAISQSSTGTVMGAVIMEGFYVVFDRARKRIGFAVSACHVHDEFRTAAVEGPFVTLDMEDCGYNIPQTDESTLMTIAYVMAAICALFMLPLCLMVCQWRCLRCLRQQHDDFADDISLLK
  hydrolysis of the synthetic peptide substrate, RP-HPLC with UV detection; products identified by Edman sequencing and MALDI-TOF: the two product peaks which eluted before the intact peptide substrate, were confirmed to have the sequence DAEFR and SEVNL
  β-secretase activity of chromatography fractions (peptide substrate assay): Fractions containing both Hu-Asp2 immunoreactivity and β-secretase activity were combined
